Assay results reported in US20200399385A1 (Bristol-Myers Squibb, published 2020).

T1: human OX40 on cells (human, UniProt P43489 29-277)
T1 construct: also called hOX40-293 cells; hOX40-HT1080
T1 sequence: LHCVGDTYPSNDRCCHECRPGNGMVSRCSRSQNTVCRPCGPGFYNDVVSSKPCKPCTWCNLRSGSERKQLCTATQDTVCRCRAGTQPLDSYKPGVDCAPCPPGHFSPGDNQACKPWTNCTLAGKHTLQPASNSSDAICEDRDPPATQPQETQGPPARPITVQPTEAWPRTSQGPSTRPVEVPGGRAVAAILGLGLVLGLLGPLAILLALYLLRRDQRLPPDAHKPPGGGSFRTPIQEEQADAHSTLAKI

T2: cynomolgus OX40 on cells (cynomolgus, UniProt P43489 29-277 (human entry))
T2 construct: also called cynoOX40-CHO
T2 chain: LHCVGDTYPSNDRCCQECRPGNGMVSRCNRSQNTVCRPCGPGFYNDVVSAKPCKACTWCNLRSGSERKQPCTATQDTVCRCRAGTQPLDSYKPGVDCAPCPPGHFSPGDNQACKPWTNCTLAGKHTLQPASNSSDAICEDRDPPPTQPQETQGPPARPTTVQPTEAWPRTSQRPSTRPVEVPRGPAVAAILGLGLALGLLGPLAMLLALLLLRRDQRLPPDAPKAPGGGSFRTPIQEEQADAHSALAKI

T3: his-tagged soluble human OX40 (huOX40-6xhis) (human, UniProt P43489 29-214)
T3 construct: made in-house; also called Human-OX40-6XHIS; hOX40; not shown: hexahistidine tag
T3 sequence: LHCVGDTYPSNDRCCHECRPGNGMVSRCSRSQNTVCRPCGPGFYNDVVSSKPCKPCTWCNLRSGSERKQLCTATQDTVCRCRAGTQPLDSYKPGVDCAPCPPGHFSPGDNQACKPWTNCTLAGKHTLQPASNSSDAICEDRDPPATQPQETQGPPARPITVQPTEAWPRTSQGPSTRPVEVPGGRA

B1: 8B11 (antibody, V domains shown)
VH: EIQLVQSGGGLVHPGGSLRLSCAGSGFTFSSDAMYWVRQAPGKGLEWVSAIGIGGDTYYTDSVMGRFTISRDNAKNSLYLQMNSLRAEDMAVYYCARLGMGYYFDYWGQGTLVTVSS
VL: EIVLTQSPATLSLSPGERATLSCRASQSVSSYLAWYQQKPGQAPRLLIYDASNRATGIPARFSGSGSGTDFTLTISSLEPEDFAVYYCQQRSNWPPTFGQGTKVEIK
notes: also called 8B11.H9.C1; 8B11.H9
B2: 23H3 (antibody, V domains shown)
VH: EVQLVQSGGGLVHPGGSLRLSCAGSGFTFSNYAMYWVRQAPGKGLEWVSAIGIGGDTFYTDSVKGRFTISRDNAKNSLSLQMNSLRAEDMAVYYCARMGTGYFFDYWGQGTLVTVSS
VL: EIVLTQSPATLSLSPGERATLSCRASQSVSSYLAWYQQKPGQAPRLLIYDASNRATGIPARFSGSGSGTDFTLTISSLEPEDFAVYYCQQRSNWPLTFGPGTKVDIK
notes: also called 23H3.C6
B3: 6E1 (antibody, V domains shown)
VH: QVQLVESGGGVVQPGRSLRLSCAASGFTFSSFAMHWVRQAPGKGLEWVTVISYDGSIKYYTDSVKGRFTFSRDNSKNTLYLQMNSLRAEDTAVYYCTRDGNYGSARYFQHWGQGTLVTVSS
VL: EIVLTQSPATLSLSPGERATLSCRASQSVSSYLAWYQQKPGQAPRLLIYDASNRATGIPARFSGSGSGTDFTLTISSLEPEDFAVYYCQQRSNWPYTFGQGTKLEIK
notes: also called 6E1.A12.A2; 6E1.A12

Key:
[1] = biological target: T1, human OX40 on cells; experiment: FACS, blocking of OX40L-His (0.2 µg/mL) binding to hOX40-293 cells
Description: Briefly, 293 cells stably transfected with human OX40 were first pre-incubated with varying concentrations of anti-OX40 antibodies. […] The fluorescence intensity of the staining was measured using a FACSCanto II flow cytometer (Becton Dickinson).

[2] = biological target: T1, human OX40 on cells; experiment: cell-based or functional assay
[3] = biological target: T1, human OX40 on cells; experiment: FACS, activated human T cells; mean ± SD, n=2
Description: (§1) Cells were activated for several days before the binding assay in order to induce OX40 expression. Briefly, PBMCs were cultured for three or four days with magnetic beads coated with anti-human CD3 plus anti-human CD28, in the presence of recombinant human IL-2. On the day of the assay, the beads were removed and the cells stained with a titration of each anti-OX40 antibody. Bound antibodies were detected with a fluorescently conjugated anti-human IgG polyclonal secondary antibody, and the cells were co-stained for CD4 and CD25 to detect activated CD4 T cells. The fluorescence intensity of the staining was measured using a FACSCanto II flow cytometer (Becton Dickinson). The geometric mean fluorescence intensity (GMFI) or median fluorescence intensity (MedFI) of anti-OX40 antibody staining was calculated for the CD4+CD25+ population (FACSDiva software). EC₅₀s for antibody binding were calculated using GraphPad Prism software.

[4] = biological target: T2, cynomolgus OX40 on cells; experiment: FACS, activated cyno T cells; mean ± SD, n=4
Description: Briefly, cells were activated for several days before the binding assay in order to induce OX40 expression. Total leukocytes were isolated from cynomolgus macaque peripheral blood by lysis of red blood cells using an ammonium chloride buffer. The leukocytes were then cultured for four to five days with in flasks pre-coated with anti-human CD3 plus anti-human CD28 antibodies that cross-react with cynomolgus macaque, in the presence of recombinant human IL-2, in order to expand and activate T cells. On the day of the assay, the cells were harvested and stained with a titration of each anti-OX40 antibody. Bound antibodies were detected with a fluorescently conjugated anti-human IgG polyclonal secondary antibody, and the cells were co-stained for CD4 and CD25 to detect activated CD4 T cells. The fluorescence intensity of the staining was measured using a FACSCanto II flow cytometer (Becton Dickinson). The geometric mean fluorescence intensity (GMFI) or median fluorescence intensity (MedFI) of anti-OX40 antibody staining was calculated for the CD4+CD25+ population (FACSDiva software). Dose-response curves were generated and EC50s for antibody binding were calculated using GraphPad Prism software.

[5] = biological target: T1, human OX40 on cells; experiment: FACS competition on HT1080-hOX40 cells against APC-OX40.1 (FL2 MFI); the table gives no unit, axis 'Ab conc nM'
Description: (§2) This experiment was performed to test the cross-blocking properties of various anti-OX40 antibodies to assess binding specificities. […] Cells were washed and if necessary further incubated in the presence of streptavidin-APC conjugate under the same conditions. After the final wash, cells were analyzed on a FACSCanto flow cytometer (BD Bioscience, San Jose, Calif.). Mean fluorescence intensity (MFI) signal was proportional to bound conjugated antibody.

[6] = biological target: T3, his-tagged soluble human OX40 …; experiment: SPR, mAb captured on anti-human CH1, OX40-6XHIS analyte, 1:1 fit
Description: The affinity of several OX40 antibodies for soluble human OX40 was tested by SPR analysis. […] Human-OX40-6XHIS antigen in either a single concentration of 400 nM or a 1:2 serial dilution from 400 nM was used. Experiments were carried out on BIACORE® T200 or BIACORE® 3000 SPR instruments. Data was fit to a 1:1 model.

[7] = biological target: T1, human OX40 on cells; experiment: FACS competition on hOX40-293 cells against biotin-OX40.5 (spike biotOX.5 @ 0.4 ug/mL, streptavidin-APC); FL4-MFI falls from about 8700 to about 4100; the table gives no unit, axis in nM
Description: as §2

[8] = biological target: T1, human OX40 on cells; experiment: FACS, activated human T cells; mean ± SD, n=3
Description: as §1

[9] = biological target: T1, human OX40 on cells; experiment: FACS competition on HT1080-hOX40 cells against APC-OX40.1 (FL2 MFI); the table gives no unit, axis 'Ab conc nM'; NOTE: the curve of this antibody is flat at about 18000 (no inhibition), the printed fit value has no meaning as a potency
Description: as §2

Binder | EC50 [1] | Proliferation EC50, CD4 T cells + CHO-CD3-CD32A [2] | EC50 [3] | EC50 [4] | IC50 [5] | Kd [6] | koff [6] | kon [6] | EC50 [7] | EC50 [8] | IC50 [9]
B1 | 0.45 nM | 0.022 nM | 0.14 nM | 0.2 nM | 1.41 nM | 10.5 nM | 0.00051 s⁻¹ | 48000 M⁻¹ s⁻¹ | – | – | –
B2 | 0.38 nM | 0.028 nM | – | 0.18 nM | – | 3.6 nM | 0.000395 s⁻¹ | 110000 M⁻¹ s⁻¹ | 3.68 nM | 0.15 nM | –
B3 | – | 0.014 nM | 0.97 nM | 0.77 nM | – | 11 nM | 0.00141 s⁻¹ | 128000 M⁻¹ s⁻¹ | – | – | ~0.00249 nM
